Data published in the supplement of paper PMC7877785.
± gives the uncertainty stated by the source.

Assay: self-splicing fitness, log relative to wild type (ln ratio); higher = more splicing; Tetrahymena group I intron in knt gene, E. coli kanamycin selection, DiMSum; sequences stand for … in CUCUCU…GGAGGGAAAAGUUAUCAGGCAUGCACCUGGUAGCUAGUCUUUAAACCAAUAGAUUGCAUCGGUUUAAAAGGCAAGACCGUCAAAUUGCGGGAAAGGGGUCAACAGCCGUUCAGUACCAAGUCUCAGGGGAAACUUUGAGAUGGCCUUGCAAAGGGUAUGGUAAUAAGCUGACGGACAUGGUCCUAACCACGCAGCCAAGUCCUAAGUCAACAGAUCUUCUGUUGAUAUGGAUGCAGUUCACAGACUAAAUGUCGGUCGGGGAAGAUGUAUUCUUCUCAUAAGAUAUAGUCGGACCUCUCCUUAAUGGGAGCUAGCGGAUGAAGUGAUGCAACACUGGAGCCGCUGGGAACUAAUUUGUAUGCGAAAGUAUAUUGAUUAGUUUUGGAGUACUCGUGGUCG
Procedure, shortened: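 Six replicate transformations of E. coli BL21(DE3) with a pET-22b(+) library were grown overnight at 37°C or 30°C. The library randomised all eight P1ex-region intron nucleotides, the intron lying in the knt kanamycin-resistance gene, and plates were LB agar with or without 25 μg/mL kanamycin plus 100 μg/mL carbenicillin, 50 μM IPTG and 0.2% rhamnose. Pooled colonies were amplicon-sequenced on an Illumina HiSeq 2500, and fitness is the DiMSum error-weighted combination of wild-type-normalised replicate fold changes, kanamycin versus none.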

Sequence | self-splicing fitness (ln) (30 °C) | self-splicing fitness (ln) (37 °C)
GCCAAGCAAUAUUACGAUCC | -1.01 ± 0.14 | 0.392 ± 0.18
GCCAAGCAAUAUUACGCAGC | -2.96 ± 0.2 | -2.53 ± 0.25
GCCAAGCAAUAUUACGCUAG | -3.06 ± 0.15 | -2.25 ± 0.17
GCCAAGCAAUAUUACGCUCA | -0.458 ± 0.093 | 0.0485 ± 0.12
GCCAAGCAAUAUUACGCUGG | -4.4 ± 0.28 | -2.37 ± 0.18
GCCAAGCAAUAUUACGGAUG | -1.24 ± 0.057 | -0.693 ± 0.07
GCCAAGCAAUAUUACGGCCU | -3.86 ± 0.32 | -1.67 ± 0.19
GCCAAGCAAUAUUACGGUCU | -2.26 ± 0.12 | -0.79 ± 0.12
GCCAAGCAAUAUUACGUAGA | -1.98 ± 0.064 | -1.26 ± 0.077
GCCAAGCAAUAUUACGUAGC | -2.49 ± 0.14 | -1.31 ± 0.13
GCCAAGCAAUAUUACGUAUA | -2 ± 0.23 | -0.632 ± 0.15
GCCAAGCAAUAUUACGUCAA | -2.75 ± 0.34 | -1.97 ± 0.22
GCCAAGCAAUAUUACGUGGA | -0.758 ± 0.049 | -0.303 ± 0.052
GCCAAGCAAUAUUACGUGGC | -3.84 ± 0.2 | -3.04 ± 0.28
GCCAAGCAAUAUUACGUUAU | -2.76 ± 0.14 | -0.784 ± 0.1
GCCAAGCAAUAUUACGUUGG | -3.36 ± 0.27 | -2.6 ± 0.19
GCCCAGCAAUAUUACGAACC | -1.02 ± 0.15 | 0.156 ± 0.15
GCCCAGCAAUAUUACGACAA | -2.72 ± 0.14 | -1.27 ± 0.11
GCCCAGCAAUAUUACGACCG | -2.84 ± 0.18 | -1.55 ± 0.21
GCCCAGCAAUAUUACGAGUA | -0.468 ± 0.14 | -0.671 ± 0.1
GCCCAGCAAUAUUACGAGUG | -1.37 ± 0.076 | -0.365 ± 0.085
GCCCAGCAAUAUUACGAUCG | -3.49 ± 0.12 | -1.44 ± 0.1
GCCCAGCAAUAUUACGCACU | -0.532 ± 0.075 | 0.216 ± 0.12
GCCCAGCAAUAUUACGCAGC | -1.83 ± 0.12 | -1.38 ± 0.13

Sequence | self-splicing fitness (ln) (30 °C) | self-splicing fitness (ln) (37 °C)
GCCCAGCAAUAUUACGCCGA | -1.86 ± 0.13 | -1.2 ± 0.12
GCCCAGCAAUAUUACGCGCG | -2.16 ± 0.14 | -0.815 ± 0.13
GCCCAGCAAUAUUACGCGCU | -3.29 ± 0.18 | -2.41 ± 0.2
GCCCAGCAAUAUUACGCUAA | -0.87 ± 0.083 | -0.549 ± 0.09
GCCCAGCAAUAUUACGGAAG | -2.76 ± 0.13 | -1.4 ± 0.11
GCCCAGCAAUAUUACGGAGC | -4.06 ± 0.39 | -2.17 ± 0.34
GCCCAGCAAUAUUACGGCCA | -2.6 ± 0.27 | -0.571 ± 0.18
GCCCAGCAAUAUUACGGCGU | -1.12 ± 0.064 | -0.731 ± 0.089
GCCCAGCAAUAUUACGGGAA | 0.0209 ± 0.051 | 0.313 ± 0.06
GCCCAGCAAUAUUACGGUUU | 0.123 ± 0.05 | 0.185 ± 0.063
GCCCAGCAAUAUUACGUAUC | -0.98 ± 0.08 | -1.18 ± 0.081
GCCCAGCAAUAUUACGUUCU | -1.95 ± 0.079 | -1.18 ± 0.091
GCCCAGCAAUAUUACGUUGA | -1.72 ± 0.11 | -1.25 ± 0.12
GCCCAGCAAUAUUACGUUUU | -1.53 ± 0.064 | -0.591 ± 0.09
GCCGAGCAAUAUUACGAAGA | -2.76 ± 0.16 | -2.03 ± 0.12
GCCGAGCAAUAUUACGAGAA | -2.99 ± 0.19 | -0.755 ± 0.12
GCCGAGCAAUAUUACGAGGU | -4 ± 0.3 | -2.23 ± 0.25
GCCGAGCAAUAUUACGAUGU | -0.691 ± 0.057 | -0.267 ± 0.069
GCCGAGCAAUAUUACGCAAC | -3.15 ± 0.29 | -2.07 ± 0.26
GCCGAGCAAUAUUACGCAUG | -3.99 ± 0.3 | -2.4 ± 0.22
GCCGAGCAAUAUUACGCCGC | -3.95 ± 0.43 | 
GCCGAGCAAUAUUACGCUUG | -3.71 ± 0.23 | -2.78 ± 0.24
GCCGAGCAAUAUUACGGACU | -1.86 ± 0.2 | -0.863 ± 0.15
GCCGAGCAAUAUUACGGCAG | -3.94 ± 0.29 | -2.61 ± 0.33

Sequence | self-splicing fitness (ln) (30 °C) | self-splicing fitness (ln) (37 °C)
GCCGAGCAAUAUUACGGGGG | -3.61 ± 0.19 | -3.02 ± 0.31
GCCGAGCAAUAUUACGUAAU | -1.28 ± 0.092 | -0.203 ± 0.099
GCCGAGCAAUAUUACGUAUA | -3.29 ± 0.15 | -1.87 ± 0.12
GCCGAGCAAUAUUACGUCUC | -2.92 ± 0.22 | -1.44 ± 0.21
GCCGAGCAAUAUUACGUGGC | -3.26 ± 0.14 | -2.25 ± 0.21
GCCGAGCAAUAUUACGUGUA | -1.32 ± 0.071 | -0.983 ± 0.078
GCCGAGCAAUAUUACGUUCG | -2.72 ± 0.26 | -2 ± 0.34
GCCGAGCAAUAUUACGUUGG | -3.55 ± 0.24 | -2.18 ± 0.27
GCCUAGCAAUAUUACGAAUA | -2.12 ± 0.43 | 
GCCUAGCAAUAUUACGAAUU | -2.09 ± 0.12 | -0.976 ± 0.11
GCCUAGCAAUAUUACGACGC | -0.302 ± 0.091 | 0.255 ± 0.11
GCCUAGCAAUAUUACGACUU | -1.37 ± 0.077 | -0.298 ± 0.079
GCCUAGCAAUAUUACGAUAA | -2.08 ± 0.12 | -1.75 ± 0.14
GCCUAGCAAUAUUACGAUUC | -0.921 ± 0.076 | -0.684 ± 0.096
GCCUAGCAAUAUUACGCAAU | -0.932 ± 0.14 | -0.245 ± 0.17
GCCUAGCAAUAUUACGCUCU | -0.984 ± 0.06 | 0.106 ± 0.083
GCCUAGCAAUAUUACGCUGA | -1.69 ± 0.074 | -0.266 ± 0.079
GCCUAGCAAUAUUACGGCAA | -2.64 ± 0.15 | -1.75 ± 0.14
GCCUAGCAAUAUUACGGCCU | -2.48 ± 0.18 | -1.33 ± 0.24
GCCUAGCAAUAUUACGGCUG | -1.88 ± 0.15 | -3.29 ± 0.42
GCCUAGCAAUAUUACGGGUU | -2.93 ± 0.12 | -2.02 ± 0.13
GCCUAGCAAUAUUACGGUGU | -0.374 ± 0.054 | 0.0553 ± 0.064
GCCUAGCAAUAUUACGGUUU | -0.729 ± 0.05 | -0.56 ± 0.062
GCCUAGCAAUAUUACGUCGC | -1.46 ± 0.17 | -1.01 ± 0.16

Sequence | self-splicing fitness (ln) (30 °C) | self-splicing fitness (ln) (37 °C)
GCCUAGCAAUAUUACGUUCU | -1.96 ± 0.14 | -0.354 ± 0.12
GCGAAGCAAUAUUACGAACU | -0.877 ± 0.16 | -0.787 ± 0.17
GCGAAGCAAUAUUACGAAGU | -2.99 ± 0.35 | -2.89 ± 0.26
GCGAAGCAAUAUUACGACGC | -1.98 ± 0.47 | 
GCGAAGCAAUAUUACGACGG | -1.27 ± 0.21 | -0.313 ± 0.33
GCGAAGCAAUAUUACGACUU | -1.4 ± 0.1 | -0.741 ± 0.12
GCGAAGCAAUAUUACGAGCA | -1.52 ± 0.2 | -1.63 ± 0.25
GCGAAGCAAUAUUACGAGGG | -3.77 ± 0.23 | -3.27 ± 0.35
GCGAAGCAAUAUUACGAUCA | -1.82 ± 0.34 | -1.01 ± 0.3
GCGAAGCAAUAUUACGAUCG | -2.49 ± 0.31 | -0.964 ± 0.28
GCGAAGCAAUAUUACGCACA | -1.08 ± 0.13 | -0.906 ± 0.14
GCGAAGCAAUAUUACGCACG | -2.58 ± 0.21 | -3.6 ± 0.35
GCGAAGCAAUAUUACGCAGG | -3.06 ± 0.27 | -2.39 ± 0.23
GCGAAGCAAUAUUACGCCUG | -2.26 ± 0.19 | -2.16 ± 0.24
GCGAAGCAAUAUUACGCGGG | -2.26 ± 0.16 | -2.72 ± 0.36
GCGAAGCAAUAUUACGCGGU | -2.84 ± 0.29 | -1.65 ± 0.32
GCGAAGCAAUAUUACGCUAA | -2.54 ± 0.28 | -2.21 ± 0.2
GCGAAGCAAUAUUACGCUGG | -1.61 ± 0.13 | -2.73 ± 0.22
GCGAAGCAAUAUUACGGAAC | -2.72 ± 0.21 | -2.28 ± 0.47
GCGAAGCAAUAUUACGGCAG | -1.93 ± 0.21 | -2.92 ± 0.38
GCGAAGCAAUAUUACGGCUG | -1.55 ± 0.1 | -0.574 ± 0.14
GCGAAGCAAUAUUACGGGCA | -1.96 ± 0.15 | -0.529 ± 0.11
GCGAAGCAAUAUUACGGGUU | -2.88 ± 0.1 | -1.65 ± 0.099
GCGAAGCAAUAUUACGGUGA | -2.09 ± 0.11 | -1.07 ± 0.12
